Patent US9915665

Experiments:
[1] = biological target: murine DLL4 (murine) (UniProt Q9JI71); test: Biacore (SPR), muDLL4; reference is the parental DVD
[2] = biological target: murine DLL4 (murine) (UniProt Q9JI71); test: Biacore (SPR), DVD-Ig and muDLL4
[3] = biological target: human DLL4 (human) (UniProt Q9NR61); test: Biacore (SPR), huDLL4; reference is the parental DVD
[4] = biological target: human DLL4 (human) (UniProt Q9NR61); test: Biacore (SPR), DVD-Ig and huDLL4

UniProt Q9NR61, sequence (Q9NR61 27-524 limits assumed): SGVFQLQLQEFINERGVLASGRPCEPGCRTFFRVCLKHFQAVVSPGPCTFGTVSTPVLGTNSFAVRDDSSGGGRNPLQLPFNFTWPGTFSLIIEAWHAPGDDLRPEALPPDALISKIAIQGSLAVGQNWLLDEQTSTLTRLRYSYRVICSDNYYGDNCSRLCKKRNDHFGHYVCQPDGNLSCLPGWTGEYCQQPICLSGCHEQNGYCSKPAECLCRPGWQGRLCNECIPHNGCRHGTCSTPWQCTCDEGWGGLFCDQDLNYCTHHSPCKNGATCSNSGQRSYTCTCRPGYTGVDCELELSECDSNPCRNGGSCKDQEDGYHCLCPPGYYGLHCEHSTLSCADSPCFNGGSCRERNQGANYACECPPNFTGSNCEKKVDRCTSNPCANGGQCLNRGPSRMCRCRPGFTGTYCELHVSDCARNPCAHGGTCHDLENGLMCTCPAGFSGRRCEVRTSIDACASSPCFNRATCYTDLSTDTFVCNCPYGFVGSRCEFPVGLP
UniProt Q9JI71, sequence (Q9JI71 27-525 limits assumed): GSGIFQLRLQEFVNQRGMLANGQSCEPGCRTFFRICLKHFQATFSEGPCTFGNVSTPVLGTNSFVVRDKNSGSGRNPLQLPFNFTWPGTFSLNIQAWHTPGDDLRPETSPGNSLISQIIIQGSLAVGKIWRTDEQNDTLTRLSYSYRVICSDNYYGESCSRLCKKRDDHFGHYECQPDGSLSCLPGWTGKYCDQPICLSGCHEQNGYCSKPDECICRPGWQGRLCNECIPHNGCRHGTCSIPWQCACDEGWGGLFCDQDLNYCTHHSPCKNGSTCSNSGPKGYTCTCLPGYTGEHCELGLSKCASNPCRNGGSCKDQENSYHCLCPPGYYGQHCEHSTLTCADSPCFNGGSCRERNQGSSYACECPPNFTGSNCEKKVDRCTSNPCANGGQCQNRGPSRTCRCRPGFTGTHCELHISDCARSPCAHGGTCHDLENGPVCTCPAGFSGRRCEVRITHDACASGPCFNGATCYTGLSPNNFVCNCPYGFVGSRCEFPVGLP

| Binder | KD ratio (parental DVD/AM DVD) [1] [fold] | Kd [2] [nM] | koff [2] [s⁻¹] | kon [2] [M⁻¹ s⁻¹] | KD ratio (parental DVD/AM DVD) [3] [fold] | Kd [4] [nM] | koff [4] [s⁻¹] | kon [4] [M⁻¹ s⁻¹] |
| --- | --- | --- | --- | --- | --- | --- | --- | --- |
| h1A11.1-A10-S3-SS-Anti-VEGF DVD-Ig (bispecific antibody, part only; not given: anti-VEGF domains, h1A11.1 VL, constant regions, part only) heavy, part: EVQLVESGGGLVQPGGSLRLSCAASGFTFRHFPMAWVRQAPGKGLEWVASISSSDGTSNYRDSVKGRFTISRDNAKSSLYLQMNSLRAEDTAVYYCARGYYNSPFAYWGQGTLVTVSSASTKGP light, part: TVAAP | 53.8 | 0.774 | 0.000133 | 171000 |  |  |  |  |
| h1A11.1-A04-S3-SS-Anti-VEGF DVD-Ig (bispecific antibody, part only; not given: anti-VEGF domains, h1A11.1 VL, constant regions, part only) heavy, part: EVQLVESGGGLVQPGGSLRLSCAASGFTFRHFPMAWVRQAPGKGLEWVATISSSDGATYYRDSVKGRFTISRDNAKSSLYLQMNSLRAEDTAVYYCARGYYNSPFAYWGQGTLVTVSSASTKGP light, part: TVAAP | 92.2 | 0.451 | 8.12e-05 | 180000 |  |  |  |  |
| h1A11.1-F7-S2-SS-Anti-VEGF DVD-Ig (bispecific antibody, part only; not given: anti-VEGF domains, h1A11.1 VL, constant regions, part only) heavy, part: EVQLVESGGGLVQPGGSLRLSCAASGFTFRHFPMTWVRQAPGKGLEWVASISSSDGTINYRDSVKGRFTISRDNAKNSLYLQMNSLRAEDTAVYYCARGYYNSPFAYWGQGTLVTVSSASTKGP light, part: TVAAP | 59.2 | 0.361 | 0.000483 | 1.34e+06 | 35.9 | 0.556 | 0.000319 | 570000 |

Continued by falling Kd [2], values first:

| KD ratio (parental DVD/AM DVD) [1] [fold] | Kd [2] [nM] | koff [2] [s⁻¹] | kon [2] [M⁻¹ s⁻¹] | KD ratio (parental DVD/AM DVD) [3] [fold] | Kd [4] [nM] | koff [4] [s⁻¹] | kon [4] [M⁻¹ s⁻¹] | Binder |
| --- | --- | --- | --- | --- | --- | --- | --- | --- |
| 13.6 | 1.57 | 0.000266 | 169000 | 15.2 | 1.32 | 0.000155 | 117000 | h1A11.1-G7-S2-SS-Anti-VEGF DVD-Ig (bispecific antibody, part only; not given: anti-VEGF domains, h1A11.1 VL, constant regions, part only) heavy, part: EVQLVESGGGLVQPGGSLRLSCAASGFTFNHFPMAWVRQAPGKGLEWVATISSSDWTPYYRDSVKGRFTISRDNAKNSLYLQMNSLRAEDTAVYYCARGYYNSPFAYWGQGTLVTVSSASTKGP light, part: TVAAP |
| 14.3 | 1.49 | 0.000294 | 197000 | 19.1 | 1.04 | 0.000136 | 130000 | h1A11.1-H3-S2-SS-Anti-VEGF DVD-Ig (bispecific antibody, part only; not given: anti-VEGF domains, h1A11.1 VL, constant regions, part only) heavy, part: EVQLVESGGGLVQPGGSLRLSCAASGFTFRNFPMAWVRQAPGKGLEWVASISSSDGTTNYRDSVKGRFTISRDNAKSSLYLQMNSLRAEDTAVYYCARGYYNSPFAYWGQGTLVTVSSASTKGP light, part: TVAAP |
| 17.4 | 1.23 | 0.000205 | 167000 | 21.6 | 0.923 | 0.000106 | 115000 | h1A11.1-B9-S2-SS-Anti-VEGF DVD-Ig (bispecific antibody, part only; not given: anti-VEGF domains, h1A11.1 VL, constant regions, part only) heavy, part: EVQLVESGGGLVQPGGSLRLSCAASGFTFSHFPMAWVRQAPGKGLEWVASISSSDSTTNYRDSVKGRFTISRDNAKNSLYLQMNSLRAEDTAVYYCARGYYNSPFAYWGQGTLVTVSSASTKGP light, part: TVAAP |
